B1: Serine/threonine-protein phosphatase PP1-2 (Saccharomyces cerevisiae), P32598 (parent)
chain: MDSQPVDVDNIIDRLLEVRGSKPGQQVDLEENEIRYLCSKARSIFIKQPILLELEAPIKICGDIHGQYYDLLRLFEYGGFPPESNYLFLGDYVDRGKQSLETICLLLAYKIKYPENFFILRGNHECASINRIYGFYDECKRRYNIKLWKTFTDCFNCLPIAAIIDEKIFCMHGGLSPDLNSMEQIRRVMRPTDIPDVGLLCDLLWSDPDKDIVGWSENDRGVSFTFGPDVVNRFLQKQDMELICRAHQVVEDGYEFFSKRQLVTLFSAPNYCGEFDNAGAMMSVDESLLCSFQILKPAQKSLPRQAGGRKKK
partner: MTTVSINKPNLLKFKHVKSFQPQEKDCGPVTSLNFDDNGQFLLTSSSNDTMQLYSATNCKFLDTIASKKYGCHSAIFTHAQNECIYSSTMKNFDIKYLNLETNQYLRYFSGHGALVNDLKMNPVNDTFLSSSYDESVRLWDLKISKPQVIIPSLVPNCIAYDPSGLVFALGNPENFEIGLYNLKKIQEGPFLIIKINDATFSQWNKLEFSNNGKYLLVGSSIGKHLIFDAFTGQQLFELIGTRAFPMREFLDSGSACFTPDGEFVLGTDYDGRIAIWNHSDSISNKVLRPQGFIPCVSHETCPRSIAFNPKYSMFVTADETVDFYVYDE
B2: RNA end formation protein 2 (Saccharomyces cerevisiae), P42073 (parent)
chain: MSAPVPQLVNISHALQASTIQQIRLDMVDFNKDCKLSSIQLARIDKYIDSLQAALNQFTKDNLHIERKEKNVTEADIQLYSGLKSMYLDYLNQLIKLKHEKQHHSTPPIANDVSLDFFVNQLPKFSPEERKNYIDNLILNKNSHNRLSKMDGLVDAVINLCVLDTSVAENVRSYMKLLDTLGFQKGSNSTGTKANLKKKLASSKAKIKDSEKEKEKEKDKSKVKMKTKLKPSPLLNNDDKNSSPSPTASTSSMKKLKSGLFNKNEAKSTESLPTSSKKKLSFSKYLNKDDADMTKLGTKRSIDVDFKVNPEASTVASNIISSSTSGSSTTTVATPASSEEPLKKKTKISVQDSNVQSILRNGKPKKARISSIKFLDDSQLIKVYGDDLPNQGLQVSPTQLKKILKPFKEGEPKEIILFEDMSIKLKPLDLMFLKNTNSDDYMDISETKGGPIHCETRTPLIYRKNFNHFNPDLNKRPPREPIEFDLNGNTNSTPTIAKAFGKNSLLLRKDRGGLPYKHVPIVKRNKYPPRPVH
B3: Serine/threonine-protein phosphatase PP1-2 (Saccharomyces cerevisiae), P32598 (parent)
chain: B1 chain
B4: Serine/threonine-protein phosphatase PP1-2 (Saccharomyces cerevisiae), P32598 (parent)
chain: B1 chain
partner: B2 chain

Variants of: B1
Settings: with swd2_yeast SWD2, P36104

effect of a mutation on the interaction | Variant
disrupting interaction strength | MDSQPVDVDNIIDRLLEVRGSKPGQQVDLEENEIRYLCSKARSIFIKQPILLELEAPIKICGDIHGQYYDLLRLFEYGGFPPESNYLFLGDYVDRGKQSLETICLLLAYKIKYPENFFILRGNHECASINRIYGFYDECKRRYNIKLWKTFTDCFNCLPIAAIIDEKIFCMHGGLSPDLNSMEQIRRVMRPTDIPDVGLLCDLLWSDPDKDIVGWSENDRGVSFTFGPDVVNRFLQKQDMELICRAHQVVEDGYEAFSKRQLVTLFSAPNYCGEFDNAGAMMSVDESLLCSAQILKPAQKSLPRQAGGRKKK [F256A;F292A]
disrupting interaction strength | MDSQPVDVDNIIDRLLEVRGSKPGQQVDLEENEIRYLCSKARSIFIKQPILLELEAPIKICGDIHGQYYDLLRLFEYGGFPPESNYLFLGDYVDRGKQSLETICLLLAYKIKYPENFFILRGNHECASINRIYGFYDECKRRYNIKLWKTFTDCFNCLPIAAIIDEKIFCMHGGLSPDLNSMEQIRRVMRPTDIPDVGLLCDLLWSDPDKDIVGWSENDRGVSFTFGPDVVNRFLQKQDMELICRAHQVVEDGYEAFSKRQLVTLFSAPNYCGEFDNAGAMMSVDESLLCSFQILKPAQKSLPRQAGGRKKK [F256A]
decreasing interaction strength | MDSQPVDVDNIIDRLLEVRGSKPGQQVDLEENEIRYLCSKARSIFIKQPILLELEAPIKICGDIHGQYYDLLRLFEYGGFPPESNYLFLGDYVDRGKQSLETICLLLAYKIKYPENFFILRGNHECASINRIYGFYDECKRRYNIKLWKTFTDCFNCLPIAAIIDEKIFCMHGGLSPDLNSMEQIRRVMRPTDIPDVGLLCDLLWSDPDKDIVGWSENDRGVSFTFGPDVVNRFLQKQDMELICRAHQVVEDGYEFFSKRQLVTLFSAPNYCGEFDNAGAMMSVDESLLCSAQILKPAQKSLPRQAGGRKKK [F292A]

Variants of: B2
Settings: with pp12_yeast GLC7, P32598

effect of a mutation on the interaction | Variant
disrupting interaction strength | MSAPVPQLVNISHALQASTIQQIRLDMVDFNKDCKLSSIQLARIDKYIDSLQAALNQFTKDNLHIERKEKNVTEADIQLYSGLKSMYLDYLNQLIKLKHEKQHHSTPPIANDVSLDFFVNQLPKFSPEERKNYIDNLILNKNSHNRLSKMDGLVDAVINLCVLDTSVAENVRSYMKLLDTLGFQKGSNSTGTKANLKKKLASSKAKIKDSEKEKEKEKDKSKVKMKTKLKPSPLLNNDDKNSSPSPTASTSSMKKLKSGLFNKNEAKSTESLPTSSKKKLSFSKYLNKDDADMTKLGTKRSIDVDFKVNPEASTVASNIISSSTSGSSTTTVATPASSEEPLKKKTKISVQDSNVQSILRNGKPKKARISSIKALDDSQLIKVYGDDLPNQGLQVSPTQLKKILKPFKEGEPKEIILFEDMSIKLKPLDLMFLKNTNSDDYMDISETKGGPIHCETRTPLIYRKNFNHFNPDLNKRPPREPIEFDLNGNTNSTPTIAKAFGKNSLLLRKDRGGLPYKHVPIVKRNKYPPRPVH [F374A]

Variants of: B3
Settings: with sen1_yeast SEN1, Q00416
Chain of sen1_yeast SEN1, Q00416 (Q00416 whole entry): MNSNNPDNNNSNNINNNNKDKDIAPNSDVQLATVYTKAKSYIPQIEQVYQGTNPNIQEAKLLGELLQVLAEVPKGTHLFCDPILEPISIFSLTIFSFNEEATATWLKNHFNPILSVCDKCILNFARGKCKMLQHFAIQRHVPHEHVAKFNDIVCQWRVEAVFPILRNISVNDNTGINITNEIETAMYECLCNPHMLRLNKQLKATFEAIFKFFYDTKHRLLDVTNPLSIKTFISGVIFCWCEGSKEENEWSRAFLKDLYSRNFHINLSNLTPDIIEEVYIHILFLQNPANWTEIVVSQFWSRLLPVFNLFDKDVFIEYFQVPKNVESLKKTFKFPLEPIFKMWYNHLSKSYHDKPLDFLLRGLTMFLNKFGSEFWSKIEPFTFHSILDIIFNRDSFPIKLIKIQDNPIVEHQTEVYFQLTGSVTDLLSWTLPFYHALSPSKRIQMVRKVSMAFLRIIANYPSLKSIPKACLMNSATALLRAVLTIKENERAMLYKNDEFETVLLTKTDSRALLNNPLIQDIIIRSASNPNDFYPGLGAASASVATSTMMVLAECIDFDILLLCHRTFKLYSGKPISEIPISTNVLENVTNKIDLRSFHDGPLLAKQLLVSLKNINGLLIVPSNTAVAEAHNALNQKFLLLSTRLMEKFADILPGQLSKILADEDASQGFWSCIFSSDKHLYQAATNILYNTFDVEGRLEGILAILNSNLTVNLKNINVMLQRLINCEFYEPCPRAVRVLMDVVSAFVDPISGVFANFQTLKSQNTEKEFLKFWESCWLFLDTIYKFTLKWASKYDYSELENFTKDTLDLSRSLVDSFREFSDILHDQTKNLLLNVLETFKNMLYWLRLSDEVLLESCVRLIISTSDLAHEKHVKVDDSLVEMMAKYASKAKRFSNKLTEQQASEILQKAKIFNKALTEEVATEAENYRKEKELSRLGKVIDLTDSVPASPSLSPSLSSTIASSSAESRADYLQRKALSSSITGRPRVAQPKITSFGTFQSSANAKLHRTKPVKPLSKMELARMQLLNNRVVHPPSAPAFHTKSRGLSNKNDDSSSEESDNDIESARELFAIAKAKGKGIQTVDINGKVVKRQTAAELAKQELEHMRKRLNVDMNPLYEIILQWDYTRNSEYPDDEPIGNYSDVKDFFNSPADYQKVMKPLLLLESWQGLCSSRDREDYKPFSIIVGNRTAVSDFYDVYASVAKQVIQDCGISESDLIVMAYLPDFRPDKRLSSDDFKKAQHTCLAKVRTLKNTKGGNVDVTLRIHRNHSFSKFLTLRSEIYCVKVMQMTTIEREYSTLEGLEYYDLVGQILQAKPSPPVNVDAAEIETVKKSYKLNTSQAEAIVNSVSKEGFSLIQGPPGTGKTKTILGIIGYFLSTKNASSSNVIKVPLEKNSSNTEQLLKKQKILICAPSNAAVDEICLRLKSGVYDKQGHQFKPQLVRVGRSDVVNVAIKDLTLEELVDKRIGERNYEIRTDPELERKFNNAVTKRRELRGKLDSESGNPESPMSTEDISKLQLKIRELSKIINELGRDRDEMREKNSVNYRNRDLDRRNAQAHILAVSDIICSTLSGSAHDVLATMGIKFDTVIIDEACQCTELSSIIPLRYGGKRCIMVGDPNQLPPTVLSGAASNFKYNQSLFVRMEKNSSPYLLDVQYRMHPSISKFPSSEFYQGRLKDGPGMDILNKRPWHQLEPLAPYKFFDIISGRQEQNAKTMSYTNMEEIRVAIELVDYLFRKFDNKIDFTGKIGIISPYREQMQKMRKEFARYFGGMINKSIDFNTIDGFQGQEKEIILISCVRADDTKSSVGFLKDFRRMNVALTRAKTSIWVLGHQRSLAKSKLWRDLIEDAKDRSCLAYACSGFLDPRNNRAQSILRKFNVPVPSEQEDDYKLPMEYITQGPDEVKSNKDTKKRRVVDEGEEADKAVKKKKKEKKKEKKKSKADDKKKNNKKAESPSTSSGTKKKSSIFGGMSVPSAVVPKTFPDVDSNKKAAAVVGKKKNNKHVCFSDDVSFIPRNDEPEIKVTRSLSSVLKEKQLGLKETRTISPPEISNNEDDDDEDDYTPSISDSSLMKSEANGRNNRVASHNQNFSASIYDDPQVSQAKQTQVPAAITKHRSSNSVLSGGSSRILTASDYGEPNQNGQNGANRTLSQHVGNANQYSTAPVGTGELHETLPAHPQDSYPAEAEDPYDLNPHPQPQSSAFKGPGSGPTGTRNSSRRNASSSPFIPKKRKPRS

effect of a mutation on the interaction | Variant
disrupting interaction strength | MDSQPVDVDNIIDRLLEVRGSKPGQQVDLEENEIRYLCSKARSIFIKQPILLELEAPIKICGDIHGQYYDLLRLFEYGGFPPESNYLFLGDYVDRGKQSLETICLLLAYKIKYPENFFILRGNHECASINRIYGFYDECKRRYNIKLWKTFTDCFNCLPIAAIIDEKIFCMHGGLSPDLNSMEQIRRVMRPTDIPDVGLLCDLLWSDPDKDIVGWSENDRGVSFTFGPDVVNRFLQKQDMELICRAHQVVEDGYEAFSKRQLVTLFSAPNYCGEFDNAGAMMSVDESLLCSAQILKPAQKSLPRQAGGRKKK [F256A;F292A]
decreasing interaction strength | MDSQPVDVDNIIDRLLEVRGSKPGQQVDLEENEIRYLCSKARSIFIKQPILLELEAPIKICGDIHGQYYDLLRLFEYGGFPPESNYLFLGDYVDRGKQSLETICLLLAYKIKYPENFFILRGNHECASINRIYGFYDECKRRYNIKLWKTFTDCFNCLPIAAIIDEKIFCMHGGLSPDLNSMEQIRRVMRPTDIPDVGLLCDLLWSDPDKDIVGWSENDRGVSFTFGPDVVNRFLQKQDMELICRAHQVVEDGYEFFSKRQLVTLFSAPNYCGEFDNAGAMMSVDESLLCSAQILKPAQKSLPRQAGGRKKK [F292A]
disrupting interaction strength | MDSQPVDVDNIIDRLLEVRGSKPGQQVDLEENEIRYLCSKARSIFIKQPILLELEAPIKICGDIHGQYYDLLRLFEYGGFPPESNYLFLGDYVDRGKQSLETICLLLAYKIKYPENFFILRGNHECASINRIYGFYDECKRRYNIKLWKTFTDCFNCLPIAAIIDEKIFCMHGGLSPDLNSMEQIRRVMRPTDIPDVGLLCDLLWSDPDKDIVGWSENDRGVSFTFGPDVVNRFLQKQDMELICRAHQVVEDGYEAFSKRQLVTLFSAPNYCGEFDNAGAMMSVDESLLCSFQILKPAQKSLPRQAGGRKKK [F256A]

Variants of: B4
Settings: with ref2_yeast REF2, P42073

effect of a mutation on the interaction | Variant
decreasing interaction strength | MDSQPVDVDNIIDRLLEVRGSKPGQQVDLEENEIRYLCSKARSIFIKQPILLELEAPIKICGDIHGQYYDLLRLFEYGGFPPESNYLFLGDYVDRGKQSLETICLLLAYKIKYPENFFILRGNHECASINRIYGFYDECKRRYNIKLWKTFTDCFNCLPIAAIIDEKIFCMHGGLSPDLNSMEQIRRVMRPTDIPDVGLLCDLLWSDPDKDIVGWSENDRGVSFTFGPDVVNRFLQKQDMELICRAHQVVEDGYEFFSKRQLVTLFSAPNYCGEFDNAGAMMSVDESLLCSAQILKPAQKSLPRQAGGRKKK [F292A]
disrupting interaction strength | MDSQPVDVDNIIDRLLEVRGSKPGQQVDLEENEIRYLCSKARSIFIKQPILLELEAPIKICGDIHGQYYDLLRLFEYGGFPPESNYLFLGDYVDRGKQSLETICLLLAYKIKYPENFFILRGNHECASINRIYGFYDECKRRYNIKLWKTFTDCFNCLPIAAIIDEKIFCMHGGLSPDLNSMEQIRRVMRPTDIPDVGLLCDLLWSDPDKDIVGWSENDRGVSFTFGPDVVNRFLQKQDMELICRAHQVVEDGYEAFSKRQLVTLFSAPNYCGEFDNAGAMMSVDESLLCSAQILKPAQKSLPRQAGGRKKK [F256A;F292A]
disrupting interaction strength | MDSQPVDVDNIIDRLLEVRGSKPGQQVDLEENEIRYLCSKARSIFIKQPILLELEAPIKICGDIHGQYYDLLRLFEYGGFPPESNYLFLGDYVDRGKQSLETICLLLAYKIKYPENFFILRGNHECASINRIYGFYDECKRRYNIKLWKTFTDCFNCLPIAAIIDEKIFCMHGGLSPDLNSMEQIRRVMRPTDIPDVGLLCDLLWSDPDKDIVGWSENDRGVSFTFGPDVVNRFLQKQDMELICRAHQVVEDGYEAFSKRQLVTLFSAPNYCGEFDNAGAMMSVDESLLCSFQILKPAQKSLPRQAGGRKKK [F256A]

Reference: IntAct's records for PubMed 18342605
